Data from the Human Domainome abundance scans (Beltran et al. 2025).

B1: Zinc finger MYM-type protein 6, residues 427 to 504; numbered along this chain, O95789 (parent)
chain: KLKCQHCNHLFATKPELLFYKGKMFLFCGKNCSDEYKKKNKVVAMCDYCKLQKIIKETVRFSGVDKPFCSEVCKFLSA
B2: Far upstream element-binding protein 3, residues 75 to 150; numbered along this chain, Q96I24 (parent)
chain: RTVITEEFKVPDKMVGFIIGRGGEQISRIQAESGCKIQIASESSGIPERPCVLTGTPESIEQAKRLLGQIVDRCRN

Variants of: B1
Test: abundance fitness (aPCA) (normalised: wild type 0, dead -1); higher = more abundant; growth selection in yeast, the domain comes from the species named
Details: Homo sapiens

Abundance fitness: each site, then its substitutions
S77: G 0.139, W -0.106, E -0.615, A -0.129, Y -0.09, N -0.434, V -0.857, L -1.36, C -0.104, Q -0.303, T -1.01, D -0.14, R -0.394
C69: A -1.23, W -0.71, G -0.731, R -0.602, S -0.539, V -1.03, L -0.954, Q -0.404, E -0.286, T -0.902, P -0.391, K -0.637, M -0.443
A78: N -0.301, M 0.774, G 0.022, R -0.142, W -0.284, C -0.897, E -0.067, S -0.11, D 0.891, V -0.292
D65: C -0.284, L -0.105, G -0.488, I -0.666, M 0.006, R -0.908, S -0.188, A -0.226, E 0.142, N -0.141, P -0.339, T -0.208, V -0.232, F -0.598
K66: T -0.199, M 0.325, Q -0.348, Y 0.215, S -0.669, L -0.889, C -0.635, W -0.845, A -0.292, E 0.161, G 0.144, V 0.542, H -0.091
F61: D 0.56, I 0.679, V 0.399, W 0.313, K -0.027, M 0.979, A 0.209, P -0.308, C 0.561, G -0.002, H -0.151, L 0.302, E 0.298, T 0.348, R 0.117, S 0.538
C73: W -0.751, D -0.505, V -0.728, I -0.753, A -0.627, P -1.51, Q -0.944, R -0.863, E -0.885, G -0.638, M -0.142
T58: W -0.669, R 0.019, Y 0.177, K 0.055, L -0.546, P -0.328, V 0.031
E71: L -0.962, P -0.054, Y -0.28, S -0.239, G -0.292, A -0.188, N 0.491, Q -0.194, T 0.076, H -0.09, K 0.16, M 0.094, V -0.386, R -0.111, W -0.634
R60: S 0.39, L -0.309, P 0.116, D 0.342, N 0.366, C -0.059, V -0.093, W -0.468, E 0.008, Y -0.423, M 0.46, H 0.001, G -0.215, K 0.041, Q 0.014
F75: S 0.48, K 0.533, Y -0.699, Q 0.096, N 0.487, G 0.484, L 0.365, T 0.557, V 0.256, A 0.488, C 0.677, D 0.671, I 0.02, P 0.039, R 0.499
F68: K -0.476, T -0.555, Y 0.439, P -0.113, S -0.842, C 0.204, L -0.288, R -0.516, E -0.278, A -0.036, W -0.651, Q -0.341, D -0.35, M 0.263
L76: C 0.183, M 0.759, Y -0.189, H 0.095, Q 0.603, W -0.174, T -0.109, P -0.5, G -0.052, V -0.581, R 0.209
S62: C -0.072, Y 0.176, A 0.054, T -0.141, M 0.432, R -0.01, Q 0.316, W -0.696, G 0.327, V -0.536, H 0.585, D 0.914, P -0.325, L -0.19
V59: A -0.078, M 0.461, T 0.204, Y -0.536, R -0.42, W -0.344, E -0.053, Q -0.416, K -0.051, L 0.051, S -0.314, P -0.246, D -0.246, C -0.452
V64: S -0.107, A -0.302, Y 0.387, R 0.058, K -0.298, M 0.606, F -0.448, C -0.432, Q -0.009, E 0.09, I 0.365, D 0.474, G 0.046, W -0.765, T 0.037
K74: F -0.594, G -0.427, N -0.996, T -0.017, Q -0.123, E -0.39, A -0.025, V -0.674, M 0.544, R -0.298, L -0.594, S -0.705
G63: C -0.709, V -0.713, T -0.226, D 0.098, F -0.179, W -0.486, S -0.53, E -0.502, R -0.554, P -0.201, A -0.495, Q -0.191, L -0.315
S70: P -0.563, H -0.248, Q -0.578, K -0.635, L -0.162, A -0.651, D -0.498, R -0.925, Y -0.673, C -0.425, M -0.482, V -1.05, G -0.502, W -1.14
V72: Y 0.757, N 0.64, C 0.553, R 0.411, T 0.216, W 0.353, H 0.016, G 0.036, K 0.775, S 0.239, Q 0.562, E 0.535, L 0.003, A 0.252
P67: S 0.122, E -0.562, L -0.354, R 0.042, A -0.51, G 0.07, K 0.486, W -0.088, V 0.27, Q 0.296, M 0.952, T -0.349

Variants of: B2
Test: as above
Details: Homo sapiens

Abundance fitness: each site, then its substitutions
I4: A -0.122, C -0.092, H -0.146, F -0.095, G -0.14, E -0.059
R1: M 0.029, A -0.077, P -0.236, V -0.043, F -0.059, S -0.042, L -0.079, G -0.042, Y -0.126, E -0.062, T 0.028, D 0.022, I -0.016, N 0.063, W -0.2, C 0.032, H -0.034, K 0.008
T2: L -0.05, Q -0.003, E 0, Y -0.069, W -0.133, K 0, F -0.031, D -0.061, G 0, H -0.06, P -0.106, I 0.038, V -0.035, A -0.049, M -0.033, R 0.014, C -0.114
V3: W -0.106, L -0.007, Y -0.053, N 0.073, G -0.166, F -0.066, Q -0.084, I 0.044, K -0.001, A -0.064, D -0.111, M -0.037, R -0.085, P -0.117, T -0.098, H -0.155, E -0.029, C -0.081
